From patent publication US20260242478A1 (published 2026)

Tests used:
[1] = target: T1, PSMA Fab (006 PSMA Fab); assay: phage ELISA; biotinylated PSMA Fab on neutravidin plate, clonal phage supernatant, anti-M13 HRP detection; blocking buffer alone
T1 construct: also called Anti-PSMA Fab; anti-PSMA Fab
Description: (§1) Clonal phage were harvested as crude supernatants and screened via standard ELISAs. […] Prior to the addition of clonal phage. wells were incubated with blocking buffer and PSMA antigen or blocking buffer alone. Without washing or aspirating, clonal phage supernatants were then added to the wells and incubated for a short time. Wells were then washed followed by detection of bound phage using a horse radish conjugated anti-M13 antibody.

[2] = target: T1, PSMA Fab (006 PSMA Fab); assay: phage ELISA; biotinylated PSMA Fab on neutravidin plate pre-incubated with PSMA antigen as competitor, clonal phage supernatant, anti-M13 HRP detection
Description: as §1

[3] = target: T2, PSMA Fab; assay: clonal phage ELISA on captured PSMA Fab pre-incubated with PSMA antigen (competitor)
T2 construct: Biotinylated and captured on neutravidin plates in the phage ELISA; also called Anti-PSMA Fab; 006 PSMA Fab
Description: as §1

[4] = target: T2, PSMA Fab; assay: clonal phage ELISA on biotinylated PSMA Fab captured on neutravidin, anti-M13 HRP detection;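 note: crude clonal phage supernatants added to wells pretreated with PSMA antigen in blocking buffer or with blocking buffer only, then briefly incubated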
Description: as §1

[5] = target: T3, PSMA Fab (006 PSMA Fab); assay: clonal phage ELISA; biotinylated PSMA Fab on neutravidin plate, blocking buffer alone; anti-M13 HRP detection;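 note: crude clonal phage supernatants added without washing to wells pretreated with blocking buffer with or without PSMA antigen, short incubation, then washed before detecting bound phage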
T3 construct: also called Anti-PSMA Fab; anti-PSMA Fab
Description: as §1

[6] = target: T3, PSMA Fab (006 PSMA Fab); assay: clonal phage ELISA; biotinylated PSMA Fab on neutravidin plate, wells pre-incubated with PSMA antigen (competitor); anti-M13 HRP detection
Description: as §1

Row | Binder | Phage binding ELISA signal, Anti-PSMA Fab [1] | Phage binding ELISA signal, Anti-PSMA Fab in the presence of PSMA antigen [2] | Phage binding ELISA signal, Anti-PSMA Fab with PSMA antigen [3] | Phage binding ELISA signal, Anti-PSMA Fab [4] | also measured
1 | VGNMCVPEWMCVGF (Peptide-180 library clone, tested as clonal phage supernatant (peptide fused to pIII of the bacteriophage)) [Phage-3047] | 2.17 | 0.0878 |  |  | 
2 | EHLRCVPDWMCVGF (Peptide-180 library clone, tested as clonal phage supernatant (pIII display)) [Phage-3041] |  |  | 0.0886 | 2.17 | 
3 | PGQVCIPEWMCTGF (Peptide-180 library clone, tested as clonal phage supernatant (peptide fused to pIII of the bacteriophage)) [Phage-3051] | 2.16 | 0.0874 |  |  | 
4 | DMRRCEPIWMCVGF [Phage-3028] |  |  |  |  | Phage binding ELISA signal, Anti-PSMA Fab [5]: 2.19; Phage binding ELISA signal, Anti-PSMA Fab in presence of PSMA antigen [6]: 0.0954
5 | VLPVCKPLWMCKGL [Phage-3027] |  |  |  |  | Phage binding ELISA signal, Anti-PSMA Fab [5]: 2.19; Phage binding ELISA signal, Anti-PSMA Fab in presence of PSMA antigen [6]: 0.234
6 | DMRLCRPVWMCEGF (Peptide-180 library clone, tested as clonal phage supernatant (peptide fused to pIII of the bacteriophage)) [Phage-3052] | 2.16 | 0.13 |  |  | 
7 | HHQLCKPLWMCEGF [Phage-3030] |  |  |  |  | Phage binding ELISA signal, Anti-PSMA Fab [5]: 2.19; Phage binding ELISA signal, Anti-PSMA Fab in presence of PSMA antigen [6]: 0.13
8 | DYPLCRPEWMCMGF (Peptide-180 library clone, tested as clonal phage supernatant (pIII display)) [Phage-3040] |  |  | 0.0813 | 2.18 | 
9 | YAHICKPSWMCDGF (Peptide-180 library clone, tested as clonal phage supernatant (pIII display)) [Phage-3034] |  |  | 0.108 | 2.18 | 
10 | DSIMCRPAWMCAGF [Phage-3029] |  |  |  |  | Phage binding ELISA signal, Anti-PSMA Fab [5]: 2.19; Phage binding ELISA signal, Anti-PSMA Fab in presence of PSMA antigen [6]: 0.0945
11 | WEILCKPEWMCSGF [Phage-3031] |  |  |  |  | Phage binding ELISA signal, Anti-PSMA Fab [5]: 2.19; Phage binding ELISA signal, Anti-PSMA Fab in presence of PSMA antigen [6]: 0.105
12 | EGVVCIPEWMCKGF [Phage-3032] |  |  | 0.0637 | 2.18 | 
13 | IERLCMPMWMCTGL [Phage-3024] |  |  |  |  | Phage binding ELISA signal, Anti-PSMA Fab [5]: 2.19; Phage binding ELISA signal, Anti-PSMA Fab in presence of PSMA antigen [6]: 0.0679
14 | VDKVCRPMWMCAGF (Peptide-180 library clone, tested as clonal phage supernatant (peptide fused to pIII of the bacteriophage)) [Phage-3046] | 2.17 | 0.126 |  |  | 
15 | LMPLCVPVWMCSGF (Peptide-180 library clone, tested as clonal phage supernatant (pIII display)) [Phage-3035] |  |  | 0.106 | 2.18 | 
16 | VEPQCRPAWMCYGF (Peptide-180 library clone, tested as clonal phage supernatant (pIII display)) [Phage-3038] |  |  | 0.0668 | 2.18 | 

Row | Binder | Phage binding ELISA signal, Anti-PSMA Fab [1] | Phage binding ELISA signal, Anti-PSMA Fab in the presence of PSMA antigen [2] | Phage binding ELISA signal, Anti-PSMA Fab with PSMA antigen [3] | Phage binding ELISA signal, Anti-PSMA Fab [4] | also measured
17 | IIPACVPPWMCSGF (Peptide-180 library clone, tested as clonal phage supernatant (pIII display)) [Phage-3036] |  |  | 0.212 | 2.18 | 
18 | YTMVCRPAWMCQGF (Peptide-180 library clone, tested as clonal phage supernatant (pIII display)) [Phage-3042] |  |  | 0.0964 | 2.17 | 
19 | ELLMCRPAWMCDGF (Peptide-180 library clone, tested as clonal phage supernatant (pIII display)) [Phage-3033] |  |  | 0.087 | 2.18 | 
20 | PTVYCKPEWMCTGF (Peptide-180 library clone, tested as clonal phage supernatant (pIII display)) [Phage-3043] |  |  | 0.0869 | 2.17 | 
21 | VIGWCVPQWMCSGF (Peptide-180 library clone, tested as clonal phage supernatant (pIII display)) [Phage-3045] |  |  | 0.113 | 2.17 | 
22 | ELYKCVPSWMCYGF (Peptide-180 library clone, tested as clonal phage supernatant (peptide fused to pIII of the bacteriophage)) [Phage-3050] | 2.16 | 0.0696 |  |  | 
23 | VDVLCVPSWMCSWL [Phage-3026] |  |  |  |  | Phage binding ELISA signal, Anti-PSMA Fab [5]: 2.19; Phage binding ELISA signal, Anti-PSMA Fab in presence of PSMA antigen [6]: 0.0683
24 | VNVKCTPPWMCFGF (Peptide-180 library clone, tested as clonal phage supernatant (peptide fused to pIII of the bacteriophage)) [Phage-3049] | 2.16 | 0.0865 |  |  | 
25 | DWIRCLPAWMCTGF (Peptide-180 library clone, tested as clonal phage supernatant (peptide fused to pIII of the bacteriophage)) [Phage-3054] | 2.16 | 0.0848 |  |  | 
26 | SLAVCKPSWMCAGF (Peptide-180 library clone, tested as clonal phage supernatant (pIII display)) [Phage-3044] |  |  | 0.0813 | 2.17 | 
27 | PVELCRPAWMCWGF (Peptide-180 library clone, tested as clonal phage supernatant (peptide fused to pIII of the bacteriophage)) [Phage-3055] | 2.16 | 0.103 |  |  | 
28 | PAVRCEPSWMCQGF (Peptide-180 library clone, tested as clonal phage supernatant (pIII display)) [Phage-3037] |  |  | 0.161 | 2.18 | 
29 | VAPSCVPLWMCVGM (Peptide-180 library clone, tested as clonal phage supernatant (peptide fused to pIII of the bacteriophage)) [Phage-3053] | 2.16 | 0.68 |  |  | 
30 | VHNWCVPSWMCLGL (Peptide-180 library clone, tested as clonal phage supernatant (pIII display)) [Phage-3039] |  |  | 0.099 | 2.18 | 
31 | PGHVCRPAWMCEGF (Peptide-180 library clone, tested as clonal phage supernatant (peptide fused to pIII of the bacteriophage)) [Phage-3048] | 2.17 | 0.106 |  |  | 
32 | PLVVCKPAWMCIGF [Phage-3025] |  |  |  |  | Phage binding ELISA signal, Anti-PSMA Fab [5]: 2.19; Phage binding ELISA signal, Anti-PSMA Fab in presence of PSMA antigen [6]: 0.0979
